Patent publication US20030082185A1

Target: HIV-1 JR-FL gp120 envelope glycoprotein (HIV-1 JR-FL)
Experiment: cell-based or functional assay

Substance: CD4-IgG2 (from UniProt P01730 26-204; P01730 26-204) (Fc fusion)
- K (equal to the IC50) for inhibition of HIV-1 env-mediated membrane fusion, RET assay, HeLa-EnvJR-FL and PM1 cells: 0.31 µg/mL
